From article PMC3436905
Where two headings read alike, the source gives them in different places.

How the values were obtained:
[1] = target: surface vimentin (human (endogenous in HeLa and HT-29)) (UniProt P08670); experiment: flow cytometry on cells
[2] = target: surface vimentin (human (endogenous in HeLa and HT-29)) (UniProt P08670); experiment: flow cytometry on cells; remark: listed apart in the source

Chain of UniProt P08670 (P08670 whole entry): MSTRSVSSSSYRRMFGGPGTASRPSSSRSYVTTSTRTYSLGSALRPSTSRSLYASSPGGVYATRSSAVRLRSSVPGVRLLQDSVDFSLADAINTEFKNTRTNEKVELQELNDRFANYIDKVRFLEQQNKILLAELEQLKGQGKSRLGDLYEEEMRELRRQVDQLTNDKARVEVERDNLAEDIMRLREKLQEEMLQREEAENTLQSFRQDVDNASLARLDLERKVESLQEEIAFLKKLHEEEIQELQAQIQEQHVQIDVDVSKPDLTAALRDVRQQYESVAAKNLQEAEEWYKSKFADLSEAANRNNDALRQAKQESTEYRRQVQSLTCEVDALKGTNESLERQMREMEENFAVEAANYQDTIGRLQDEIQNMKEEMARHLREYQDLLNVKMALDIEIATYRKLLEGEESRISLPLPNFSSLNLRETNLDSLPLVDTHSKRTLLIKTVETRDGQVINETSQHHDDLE

Substance: Cowpea mosaic virus nanoparticles (complex)
- percent of cells positive for CPMV uptake [1]: 38%
- percent of cells positive for CPMV uptake [2]: 17%
